Consider 15 molecules from patent US20260274985A1 (MYTHIC THERAPEUTICS, published 2026).

The labels stand for the following.
B1: MYT12303 (antibody, V domains shown)
VH: QVQLQQSGSELKKPGASVKVSCKASGYTFTNYHMNWVKQAPGQGLKWMGWINTYTGEPTYTDHFKGRFAFSLDTSVSTAYLQISSLKADDTAVYFCARGGFGSSYWYFDVWGQGSLVTVSS
VL: DIQLTQSPSSLSASVGDRVSITCKASQDVSIAVAWYQQKPGKAPKLLIYSASYRYTGVPDRFSGSGSGTDFTLTISSLQPEDFAVYYCQQHYITPLTFGAGTKVEIK
notes: sacituzumab VH 33, 63 -> H
B2: MYT12312 (antibody, V domains shown)
VH: QVQLQQSGSELKKPGASVKVSCKASGYTFTNYGMNWVKQAPGQGLKWMGWINTYTGEPTYTHHFKGRFAFSLDTSVSTAYLQISSLKADDTAVYFCARGGFGSSYWYFDVWGQGSLVTVSS
VL: DIQLTQSPSSLSASVGDRVSITCKASQDVSIAVAWYQQKPGKAPKLLIYSASYRYTGVPDRFSGSGSGTDFTLTISSLQPEDFAVYYCQQHYITPLTFGAGTKVEIK
notes: sacituzumab VH 62, 63 -> H
B3: MYT12316 (antibody, V domains shown)
VH: QVQLQQSGSELKKPGASVKVSCKASGYTFTNYGMNWVKQAPGQGLKWMGWINTYTGEPTYTDHHKGRFAFSLDTSVSTAYLQISSLKADDTAVYFCARGGFGSSYWYFDVWGQGSLVTVSS
VL: DIQLTQSPSSLSASVGDRVSITCKASQDVSIAVAWYQQKPGKAPKLLIYSASYRYTGVPDRFSGSGSGTDFTLTISSLQPEDFAVYYCQQHYITPLTFGAGTKVEIK
notes: sacituzumab VH 63, 64 -> H
B4: MYT12308 (antibody, V domains shown)
VH: QVQLQQSGSELKKPGASVKVSCKASGYTFTNYGMNWVKQAPGQGLKWMGWINTYTGEPTHTDHFKGRFAFSLDTSVSTAYLQISSLKADDTAVYFCARGGFGSSYWYFDVWGQGSLVTVSS
VL: DIQLTQSPSSLSASVGDRVSITCKASQDVSIAVAWYQQKPGKAPKLLIYSASYRYTGVPDRFSGSGSGTDFTLTISSLQPEDFAVYYCQQHYITPLTFGAGTKVEIK
notes: sacituzumab VH 60, 63 -> H
B5: MYT12311 (antibody, V domains shown)
VH: QVQLQQSGSELKKPGASVKVSCKASGYTFTNYGMNWVKQAPGQGLKWMGWINTYTGEPTHTDDFKHRFAFSLDTSVSTAYLQISSLKADDTAVYFCARGGFGSSYWYFDVWGQGSLVTVSS
VL: DIQLTQSPSSLSASVGDRVSITCKASQDVSIAVAWYQQKPGKAPKLLIYSASYRYTGVPDRFSGSGSGTDFTLTISSLQPEDFAVYYCQQHYITPLTFGAGTKVEIK
notes: sacituzumab VH 60, 66 -> H
B6: MYT12313 (antibody, V domains shown)
VH: QVQLQQSGSELKKPGASVKVSCKASGYTFTNYGMNWVKQAPGQGLKWMGWINTYTGEPTYTHDHKGRFAFSLDTSVSTAYLQISSLKADDTAVYFCARGGFGSSYWYFDVWGQGSLVTVSS
VL: DIQLTQSPSSLSASVGDRVSITCKASQDVSIAVAWYQQKPGKAPKLLIYSASYRYTGVPDRFSGSGSGTDFTLTISSLQPEDFAVYYCQQHYITPLTFGAGTKVEIK
notes: sacituzumab VH 62, 64 -> H
B7: MYT12326 (antibody, V domains shown)
VH: QVQLQQSGSELKKPGASVKVSCKASGYTFTNYHMNWVKQAPGQGLKWMGWINTYTGEPTYTDDHKHRFAFSLDTSVSTAYLQISSLKADDTAVYFCARGGFGSSYWYFDVWGQGSLVTVSS
VL: DIQLTQSPSSLSASVGDRVSITCKASQDVSIAVAWYQQKPGKAPKLLIYSASYRYTGVPDRFSGSGSGTDFTLTISSLQPEDFAVYYCQQHYITPLTFGAGTKVEIK
notes: sacituzumab VH 33, 64, 66 -> H
B8: MYT12325 (antibody, V domains shown)
VH: QVQLQQSGSELKKPGASVKVSCKASGYTFTNYHMNWVKQAPGQGLKWMGWINTYTGEPTYTDDHHGRFAFSLDTSVSTAYLQISSLKADDTAVYFCARGGFGSSYWYFDVWGQGSLVTVSS
VL: DIQLTQSPSSLSASVGDRVSITCKASQDVSIAVAWYQQKPGKAPKLLIYSASYRYTGVPDRFSGSGSGTDFTLTISSLQPEDFAVYYCQQHYITPLTFGAGTKVEIK
notes: sacituzumab VH 33, 64, 65 -> H
B9: MYT12309 (antibody, V domains shown)
VH: QVQLQQSGSELKKPGASVKVSCKASGYTFTNYGMNWVKQAPGQGLKWMGWINTYTGEPTHTDDHKGRFAFSLDTSVSTAYLQISSLKADDTAVYFCARGGFGSSYWYFDVWGQGSLVTVSS
VL: DIQLTQSPSSLSASVGDRVSITCKASQDVSIAVAWYQQKPGKAPKLLIYSASYRYTGVPDRFSGSGSGTDFTLTISSLQPEDFAVYYCQQHYITPLTFGAGTKVEIK
notes: sacituzumab VH 60, 64 -> H
B10: MYT12305 (antibody, V domains shown)
VH: QVQLQQSGSELKKPGASVKVSCKASGYTFTNYHMNWVKQAPGQGLKWMGWINTYTGEPTYTDDFHGRFAFSLDTSVSTAYLQISSLKADDTAVYFCARGGFGSSYWYFDVWGQGSLVTVSS
VL: DIQLTQSPSSLSASVGDRVSITCKASQDVSIAVAWYQQKPGKAPKLLIYSASYRYTGVPDRFSGSGSGTDFTLTISSLQPEDFAVYYCQQHYITPLTFGAGTKVEIK
notes: sacituzumab VH 33, 65 -> H
B11: MYT12315 (antibody, V domains shown)
VH: QVQLQQSGSELKKPGASVKVSCKASGYTFTNYGMNWVKQAPGQGLKWMGWINTYTGEPTYTHDFKHRFAFSLDTSVSTAYLQISSLKADDTAVYFCARGGFGSSYWYFDVWGQGSLVTVSS
VL: DIQLTQSPSSLSASVGDRVSITCKASQDVSIAVAWYQQKPGKAPKLLIYSASYRYTGVPDRFSGSGSGTDFTLTISSLQPEDFAVYYCQQHYITPLTFGAGTKVEIK
notes: sacituzumab VH 62, 66 -> H
B12: MYT12324 (antibody, V domains shown)
VH: QVQLQQSGSELKKPGASVKVSCKASGYTFTNYHMNWVKQAPGQGLKWMGWINTYTGEPTHTDDFKHRFAFSLDTSVSTAYLQISSLKADDTAVYFCARGGFGSSYWYFDVWGQGSLVTVSS
VL: DIQLTQSPSSLSASVGDRVSITCKASQDVSIAVAWYQQKPGKAPKLLIYSASYRYTGVPDRFSGSGSGTDFTLTISSLQPEDFAVYYCQQHYITPLTFGAGTKVEIK
notes: sacituzumab VH 33, 60, 66 -> H
B13: MYT12307 (antibody, V domains shown)
VH: QVQLQQSGSELKKPGASVKVSCKASGYTFTNYGMNWVKQAPGQGLKWMGWINTYTGEPTHTHDFKGRFAFSLDTSVSTAYLQISSLKADDTAVYFCARGGFGSSYWYFDVWGQGSLVTVSS
VL: DIQLTQSPSSLSASVGDRVSITCKASQDVSIAVAWYQQKPGKAPKLLIYSASYRYTGVPDRFSGSGSGTDFTLTISSLQPEDFAVYYCQQHYITPLTFGAGTKVEIK
notes: sacituzumab VH 60, 62 -> H
B14: MYT12304 (antibody, V domains shown)
VH: QVQLQQSGSELKKPGASVKVSCKASGYTFTNYHMNWVKQAPGQGLKWMGWINTYTGEPTYTDDHKGRFAFSLDTSVSTAYLQISSLKADDTAVYFCARGGFGSSYWYFDVWGQGSLVTVSS
VL: DIQLTQSPSSLSASVGDRVSITCKASQDVSIAVAWYQQKPGKAPKLLIYSASYRYTGVPDRFSGSGSGTDFTLTISSLQPEDFAVYYCQQHYITPLTFGAGTKVEIK
notes: sacituzumab VH 33, 64 -> H
B15: MYT12314 (antibody, V domains shown)
VH: QVQLQQSGSELKKPGASVKVSCKASGYTFTNYGMNWVKQAPGQGLKWMGWINTYTGEPTYTHDFHGRFAFSLDTSVSTAYLQISSLKADDTAVYFCARGGFGSSYWYFDVWGQGSLVTVSS
VL: DIQLTQSPSSLSASVGDRVSITCKASQDVSIAVAWYQQKPGKAPKLLIYSASYRYTGVPDRFSGSGSGTDFTLTISSLQPEDFAVYYCQQHYITPLTFGAGTKVEIK
notes: sacituzumab VH 62, 65 -> H

For this assay, the target named is T1, Human TROP2 Protein, His Tag (Acro Biosystems) (human, UniProt P09758 27-274).
T1 construct: not shown: His tag
T1 sequence (looked up): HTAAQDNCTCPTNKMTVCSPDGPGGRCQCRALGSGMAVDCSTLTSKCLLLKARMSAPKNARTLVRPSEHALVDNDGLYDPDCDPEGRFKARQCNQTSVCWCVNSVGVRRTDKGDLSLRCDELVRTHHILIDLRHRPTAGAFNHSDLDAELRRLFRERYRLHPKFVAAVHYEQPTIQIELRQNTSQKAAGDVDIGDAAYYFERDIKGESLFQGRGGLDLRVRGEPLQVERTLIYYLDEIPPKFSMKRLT
Briefly: BLI (Octet) [1/2]. On the technique in general: In BLI a coated tip is dipped into the sample, and binding shifts an interference pattern.
For B1, the binding result is reported as “binds”.

B2: the binding result is reported as “binds”.

As for B3, the binding result is on record as “binds”.

As to B4, the binding result was “binds”.

With B5, the binding result is listed as “binds”.

Regarding B6, the binding result is reported as “binds”.

As for B7, the binding result is listed as “binds”.

As for B8, the binding result is “binds”.

Regarding B9, the binding result is recorded as “binds”.

In the case of B10, the binding result was “binds”.

As to B11, the binding result is recorded as “binds”.

B12: the binding result is “binds”.

B13: the binding result is “binds”.

On to B14, for which the binding result is “binds”.

On to B15, for which the binding result is “binds”.
